Measured values: patent US20100291075A1 (THERACLONE SCIENCES, published 2010)

Molecular target: recombinant GPI-linked rhesus GM-CSF on the surface of transiently transfected 293 cells (rhesus)

B1: 1783J22 human monoclonal antibody (whole IgG) (antibody, V domains shown)
VH: EVQLLQSGGGLTHPGGSLRLSCAASGFPFHKYTMTWVRQPPGKGLEWVSSVSGVNGKTYYSPSVRGRAIVSRDDSNSMLFLEIKNMTAGDTALYFCAKGPGGHLHYYYGLDVWGHGTSVTVSS
VL: DIQMTQSPSSLSASIGDRVTISCRASQAINNYVAWFQQSAGKAPKSLIYGASNLQPGVPPRFSGSVSGTNFSLTIDGLQSEDFATYFCQNYFGYPLTFGGGTTLEIKR
With B1 the “EC50 (read off the curve)” value was ~50 ng/mL.
